# Data: patent publication US20210206877A1 (Genentech, published 2021)
# Numbering of substitutions follows the chain as printed.
# B1: 5894 (antibody, V domains shown)
# VH: QVQLVQSGAEVKKPGSSVKVSCKASGGTFSGYAISWVRQAPGQGLEWMGNIIPGFGTANYAQKFQGRVTITADESTSTAYMELSSLRSEDTAVYYCARSGGTKYGMLDVWGQGTMVTVSS
# VL: EIVMTQSPATLSVSPGERATLSCRASQSVGSNLAWYQQKPGQAPRLLIYGASTRATGIPARFSGSGSGTEFTLTISSLQSEDFAVYYCQQLYTWPPRTFGGGTKVEIK
# B2: 5644 (antibody, V domains shown)
# VH: QLQLQESGPGLVKPSETLSLTCTVSGGSISSSSYYWGWIRQPPGKGLEWIGSIYYSGSTYYNPSLKSRVTISVDTSKNQFSLKLSSVTAADTAVYYCARVGHGISYFDLWGRGTLVTVSS
# VL: B1 VL with M4L, V13L, G30S, N32Y, G50D, T53K, E70D, Q79E, S80P, L91V
# B3: 5887 (antibody, V domains shown)
# VH: B1 VH with S30R
# VL: B1 VL with G30S, Y92I, T93L
# B4: 5536 (antibody, V domains shown)
# VH: B1 VH with G31S, N50S, G54I
# VL: B1 VL with L91S, T93L
# B5: 5890 (antibody, V domains shown)
# VH: B1 VH with G31S
# VL: B1 VL
# B6: 5260 (antibody, V domains shown)
# VH: B1 VH with G31S, N50S, G54I
# VL: B1 VL with L91A, Y92V, T93V
# B7: 5884 (antibody, V domains shown)
# VH: B1 VH with A33G
# VL: B1 VL with G30S, Y92I, T93L
# B8: 5643 (antibody, V domains shown)
# VH: B2 VH
# VL: EIVLTQSPATLSLSPGERATLSCRASQSVSSYLAWYQQKPGQAPRLLIYDASNRATGIPARFSGSGSGTDFTLTISSLEPEDFAVYYCQQSLTWPPRTFGGGTKVEIK
# B9: 5888 (antibody, V domains shown)
# VH: B1 VH with S30W, G31K, Q65R
# VL: B1 VL with G30S, Y92I, T93L
# B10: 5891 (antibody, V domains shown)
# VH: B1 VH with G31S, G54I, T57P
# VL: B1 VL
# B11: 5902 (antibody, V domains shown)
# VH: B2 VH with Y55R, Y60W
# VL: B8 VL with N53K, S91V, L92Y
# B12: 5572 (antibody, V domains shown)
# VH: B1 VH with G31S, N50S, G54I
# VL: B1 VL
# B13: 5571 (antibody, V domains shown)
# VH: B1 VH with G31S, G54I, M115V
# VL: B1 VL with G30S, Y92I, T93L
# B14: 5883 (antibody, V domains shown)
# VH: B1 VH with G31S, N50G, G54I, F55G, T57G
# VL: B1 VL with G30S, Y92I, T93L
# B15: 5543 (antibody, V domains shown)
# VH: B2 VH
# VL: B8 VL with S91A, L92Y, T93V
# B16: 5747 (antibody, V domains shown)
# VH: B2 VH with S52N, V100L, I104Y
# VL: B8 VL with S91V, L92Y, T93L
# B17: 5539 (antibody, V domains shown)
# VH: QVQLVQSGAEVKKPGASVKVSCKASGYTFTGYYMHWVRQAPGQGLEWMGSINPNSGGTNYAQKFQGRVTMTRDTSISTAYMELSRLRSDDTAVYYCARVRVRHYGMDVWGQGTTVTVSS
# VL: DIQMTQSPSSLSASVGDRVTITCRASQSISSYLNWYQQKPGKAPKLLIYAASSLQSGVPSRFSGSGSGTDFTLTISSLQPEDFATYYCQQPLSHPRTFGGGTKVEIK
# B18: 5903 (antibody, V domains shown)
# VH: B2 VH with S52M, Y60W
# VL: B8 VL with N53K, S91V, L92Y
# B19: 5905 (antibody, V domains shown)
# VH: B2 VH with S31W, G37S, Y55R, S58R
# VL: B8 VL with N53K, S91V, L92Y
# B20: 5874 (antibody, V domains shown)
# VH: EVQLLESGGGLVQPGGSLRLSCAASGFTFGSYAMSWVRQAPGKGLEWVSATSGSGGSTYYADSVKGRFTISRDNSKNTLYLQMDSLRAEDTAVYYCAKGGSQWLYAPGSWFDPWGQGTLVTVSS
# VL: EIVLTQSPATLSLSPGERATLSCRASQSVSSYLAWYQQKPGQAPRLLIYDASNRATGIPARFSGSGSGTDFTLTISSLEPEDFAVYYCVQRSNFPWTFGGGTKVEIK
# B21: 5876 (antibody, V domains shown)
# VH: B20 VH with G30S, Y32R, S35G, T58I, D84N
# VL: B20 VL
# B22: 5875 (antibody, V domains shown)
# VH: B20 VH with G30S, S31T, S35G, D84N
# VL: B20 VL
# Target: T1, BACE1 endogenous to primary cortical neurons from E16.5 CD1 mice (mouse, UniProt P56818 46-501)
# Assay: cell-based or functional assay
# Throughout, for % inhibition, FRET short substrate assay (negative = activation): test concentration or dose not given here.
# T1 sequence (P56818 46-501): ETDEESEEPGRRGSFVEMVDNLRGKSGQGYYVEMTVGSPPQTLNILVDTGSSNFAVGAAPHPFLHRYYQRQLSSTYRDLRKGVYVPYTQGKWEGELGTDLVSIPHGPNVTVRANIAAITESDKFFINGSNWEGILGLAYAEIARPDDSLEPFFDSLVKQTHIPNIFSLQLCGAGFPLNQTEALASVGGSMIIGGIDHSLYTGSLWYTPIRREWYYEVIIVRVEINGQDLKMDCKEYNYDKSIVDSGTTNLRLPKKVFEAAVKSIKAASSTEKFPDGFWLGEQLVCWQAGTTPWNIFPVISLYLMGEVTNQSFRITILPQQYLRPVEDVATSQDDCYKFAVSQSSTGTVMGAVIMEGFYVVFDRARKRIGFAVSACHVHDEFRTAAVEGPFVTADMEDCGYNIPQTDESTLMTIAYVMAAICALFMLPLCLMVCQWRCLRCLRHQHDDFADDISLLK
"IC50, Abeta x-40 in mouse cortical neurons (row 5894*, second run) [nM]","max % inhibition, Abeta x-40 in mouse cortical neurons [%]","IC50, Abeta x-40 in mouse cortical neurons (row 5887*, second run) [nM]","IC50, Abeta x-40 in mouse cortical neurons (row 5884*, second run) [nM]",Binder
5.43,78,,,B1
,72,,,B2
,75,2.53,,B3
,84,,,B4
,77,,,B5
,74,,,B6
,83,,3.51,B7
,60,,,B8
,82,,,B9
,78,,,B10
,67,,,B11
,73,,,B12
,84,,,B13
,82,,,B14
,65,,,B15
,74,,,B16
,45,,,B17

# Target: T1, BACE1 endogenous to primary cortical …
# Assay: cell-based or functional assay
# Remark: another data set of the same source
"IC50, Abeta x-40 in mouse cortical neurons (row 5903*, second run) [nM]","max % inhibition, Abeta x-40 in mouse cortical neurons [%]","IC50, Abeta x-40 in mouse cortical neurons (row 5905*, second run) [nM]",Binder
7.27,72,,B18
,65,0.83,B19

# Target: T2, BACE1 ECD (as used in the enzyme activity assay) (UniProt P56817 22-457, limits assumed)
# Assay: cell-based or functional assay
# T2 sequence (P56817 22-457 limits assumed): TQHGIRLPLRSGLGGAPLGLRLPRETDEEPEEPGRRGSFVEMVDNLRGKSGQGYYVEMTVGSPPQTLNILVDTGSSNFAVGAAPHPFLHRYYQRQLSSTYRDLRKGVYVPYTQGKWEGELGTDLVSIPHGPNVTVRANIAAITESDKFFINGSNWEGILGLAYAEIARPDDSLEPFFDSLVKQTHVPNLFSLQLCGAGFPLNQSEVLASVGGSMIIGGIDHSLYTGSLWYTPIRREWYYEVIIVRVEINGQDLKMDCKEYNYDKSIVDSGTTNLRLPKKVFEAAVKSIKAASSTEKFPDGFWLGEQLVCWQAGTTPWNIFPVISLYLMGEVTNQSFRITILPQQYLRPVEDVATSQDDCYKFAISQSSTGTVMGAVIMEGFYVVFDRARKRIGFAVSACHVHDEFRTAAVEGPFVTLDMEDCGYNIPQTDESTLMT
"EC50, FRET short substrate assay [nM]","EC50, HTRF long substrate assay [nM]",Binder
8.47,8.75,B2
0.482,5.5,B3
,0.578,B4
36.8,720,B6
0.478,7.76,B7
1.41,17.7,B8
15.9,1.28,B12
0.417,5.06,B13
0.607,5.93,B14
9.11,30,B15
,0.694,B17
0.798,3.97,B20
0.703,1.67,B21
1.99,4.9,B22

# Target: murine BACE1 ECD
# Assay: cell-based or functional assay
# Sequence of murine BACE1 ECD (single chain, as listed by the source limits assumed): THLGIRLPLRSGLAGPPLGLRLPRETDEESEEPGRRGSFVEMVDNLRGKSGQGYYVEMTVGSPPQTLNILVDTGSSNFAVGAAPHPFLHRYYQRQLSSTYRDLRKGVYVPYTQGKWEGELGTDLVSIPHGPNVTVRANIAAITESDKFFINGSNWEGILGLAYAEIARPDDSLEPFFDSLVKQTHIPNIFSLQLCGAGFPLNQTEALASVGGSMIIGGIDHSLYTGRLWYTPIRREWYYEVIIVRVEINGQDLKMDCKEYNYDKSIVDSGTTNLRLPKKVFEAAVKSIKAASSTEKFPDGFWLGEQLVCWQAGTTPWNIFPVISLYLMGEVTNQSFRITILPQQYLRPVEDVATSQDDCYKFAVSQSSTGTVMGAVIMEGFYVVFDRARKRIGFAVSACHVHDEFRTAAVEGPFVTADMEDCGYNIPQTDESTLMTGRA
row,"% inhibition, FRET short substrate assay (negative = activation) [%]",Binder
1,69,B1
2,63,B2
3,-230,B3
4,30,B4
5,69,B5
6,72,B19
7,-35,B6
8,-243,B7
9,-183,B9
10,70,B10
11,77,B12
12,-175,B13
13,-275,B14
14,23,B17
15,33,B20
16,46,B21
17,39,B22

# Target: human BACE1 ECD (human, UniProt P56817)
# Assay: cell-based or functional assay
# Sequence of human BACE1 ECD (P56817 22-457): as the sequence (P56817 22-457 limits assumed) above
row,"% inhibition, FRET short substrate assay (negative = activation) [%]",Binder
1,69,B1
2,65,B2
3,-102,B3
4,32,B4
5,66,B5
6,65,B19
7,-54,B6
8,-102,B7
9,-86,B9
10,71,B10
11,75,B12
12,-89,B13
13,-129,B14
14,42,B17
15,37,B20
16,58,B21
17,51,B22

# Target: T2, BACE1 ECD (as used in the enzyme …)
# Assay: cell-based or functional assay
# Remark: another data set of the same source
"EC50, FRET short substrate assay [nM]","EC50, HTRF long substrate assay [nM]",Binder
8.58,1.79,B1
32.4,4.06,B5
3.12,1.38,B18
1.33,3.91,B19
0.602,2.5,B9
12.4,3.03,B10
